Values quoted from earlier work as cited in publication PMC8569824.

Biological target: Amyloid beta (1-40) Aβ 1-40 (Homo sapiens) (UniProt P05067)
Experiment: seed-dependent aggregation inhibition

Chain of UniProt P05067 (P05067 1-40): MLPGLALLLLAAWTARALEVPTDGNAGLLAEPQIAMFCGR

L-PGDS (from UniProt P41222)
Ki: 750 nM
